Results from US20200317776A1 (published 2020).
Substitutions are numbered along the chain they refer to. One block for each binder: values may come before it.

Columns and labels:
[1] = molecular target: T1, human TREM2 Fc fusion (entire TREM2 ECD; only one Fc arm fused to TREM2) (human, UniProt Q9NZC2 19-174); assay: BLI, Fab, monovalent
T1 construct: also called huTREM2-Fc; recombinant hTREM2
T1 sequence: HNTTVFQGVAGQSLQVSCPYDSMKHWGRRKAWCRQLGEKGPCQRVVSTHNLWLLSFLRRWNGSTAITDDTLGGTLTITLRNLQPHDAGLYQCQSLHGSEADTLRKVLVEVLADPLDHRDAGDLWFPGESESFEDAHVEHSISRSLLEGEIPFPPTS
Experimental: Briefly, IgG's were loaded on-line onto AHQ sensors. Sensors were equilibrated off-line in assay buffer for 30 minutes and then monitored on-line for 60 seconds for baseline establishment. For avid binding measurement, sensors with loaded IgGs were exposed to 100 nM antigen (human TREM2 Fc fusion using the entire TREM2 ECD; only one Fc arm was fused to TREM2) for 3 minutes, afterwards they were transferred to assay buffer for 3 minutes for off-rate measurement. Monovalent binding measurements were obtained by loading human TREM2 Fe fusion antigens to AHQ sensor and followed by exposure to 100 nM TREM2 antibody Fab. Kinetics data were fit using a 1:1 binding model in the data analysis software provided by ForteBio. Assay was run at room temperature (25° C.).

[2] = molecular target: T2, human TREM2 expressed on cells (human, UniProt Q9NZC2 19-230); assay: FACS, hTREM2 BW cells
T2 construct: BW5147.G.1.4 cells stably expressing human TREM2 together with Dap12, or endogenous TREM2 of primary human myeloid cells; also called huT2 BW; hTREM2 expressing cell line
T2 sequence: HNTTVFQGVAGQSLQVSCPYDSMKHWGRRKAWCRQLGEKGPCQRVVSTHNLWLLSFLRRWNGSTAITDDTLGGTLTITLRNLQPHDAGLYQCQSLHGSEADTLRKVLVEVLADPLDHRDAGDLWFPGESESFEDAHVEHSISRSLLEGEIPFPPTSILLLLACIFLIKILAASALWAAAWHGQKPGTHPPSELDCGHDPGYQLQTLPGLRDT
Experimental: To examine cell binding of anti-TREM2 antibodies, recombinant, human TREM2-expressing BW5147.G.1.4 cells (ATCC® TIB48™) were established by stably expressing either mouse TREM2 or human TREM2 together with Dap12 using viral infection. Cells were harvested by scraping, washed in PBS, counted and plated on 96-well U bottom plates at 1)(10⁵ cells/well. The plates were spun at 1,400 rpm for 3 minutes and primary anti-TREM2 or control antibodies were added in FACS buffer (PBS H2% FBS) and incubated on ice for one hour. Cells were subsequently centrifuged as before and washed thrice with FACS buffer. Cells were then incubated with anti-human PE conjugated secondary antibody (BD Biosciences) in FACS buffer for 30 minutes on ice. Cells were again washed thrice with FACS buffer and analyzed on a BD FACS Canto. Binding was measured as mean fluorescence intensity in the APC channel.

[3] = molecular target: human TREM2/DAP12 fusion protein (human, UniProt O43914 41-113, limits assumed); assay: cell-based or functional assay
human TREM2/DAP12 fusion protein, sequence (O43914 other isoform, or with tags, fused parts or gaps limits assumed): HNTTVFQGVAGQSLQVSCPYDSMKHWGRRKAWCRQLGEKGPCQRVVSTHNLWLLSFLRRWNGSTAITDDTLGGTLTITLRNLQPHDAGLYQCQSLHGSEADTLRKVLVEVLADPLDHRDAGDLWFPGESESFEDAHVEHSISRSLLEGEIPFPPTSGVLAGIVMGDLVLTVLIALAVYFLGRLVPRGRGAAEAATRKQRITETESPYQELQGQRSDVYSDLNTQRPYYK

B2: AL2p-h43 (antibody, human IgG1, V domains shown)
VH: QVQLVQSGAEVKKPGASLKVSCKASGYAFSSSWMNWVRQAPGQRLEWIGRIYPGDGDTNYNGEFRVRATLTADTSASTAYMELSSLRSEDTAVYFCARLLRNQPGESYAMDYWGQGTLVTVSS
VL: DVVMTQTPLSLSVTPGQPASISCRSSQSLVHSNGYTYLHWYLQKPGQSPQLLIYKVSNRFSGVPDRFSGSGSGTDFTLKISRVEAEDVGVYYCSQSTRVPYTFGQGTKLEIK
notes: humanized, human IgG1; Fab and IgG formats under one id
Kd [1]: 134 nM | cell binding (FOB) [2]: 91 FOB | Soluble luciferase activation at 10 µg/ml Fold over control [3]: 8.65 fold over control

B4: AL2p-h25 (antibody, human IgG1, V domains shown)
VH: B2 VH with V20I, R44G, A76T, F95Y, T117A
VL: B2 VL with V88L, Y92F
notes: as for B2
Kd [1]: 153 nM | cell binding (FOB) [2]: 90 FOB | Soluble luciferase activation at 10 µg/ml Fold over control [3]: 7.45 fold over control

B8: AL2p-h30 (antibody, human IgG1, V domains shown)
VH: QVQLVQSGAEVKKPGASVKVSCKASGYAFSSSWMNWVRQAPGQGLEWMGRIYPGDGDTNYAQKFQGRVTMTADTSTSTAYMELSSLRSEDTAVYYCARLLRNQPGESYAMDYWGQGTLVTVSS
VL: B2 VL with V88L, Y92F
notes: as for B2
Kd [1]: 181 nM | cell binding (FOB) [2]: 88 FOB | Soluble luciferase activation at 10 µg/ml Fold over control [3]: 6.01 fold over control

B9: AL2p-h35 (antibody, human IgG1, V domains shown)
VH: B8 VH with A16S, V68A, M70I
VL: B2 VL with V88L, Y92F
notes: as for B2
Kd [1]: 127 nM | cell binding (FOB) [2]: 69 FOB | Soluble luciferase activation at 10 µg/ml Fold over control [3]: 6.81 fold over control

B10: AL2p-h34 (antibody, human IgG1, V domains shown)
VH: B8 VH with A16S, M48I, V68A, M70I, Y95F
VL: B2 VL with V88L, Y92F
notes: as for B2
Kd [1]: 142 nM | cell binding (FOB) [2]: 84 FOB | Soluble luciferase activation at 10 µg/ml Fold over control [3]: 6.92 fold over control

B11: AL2p-h44 (antibody, human IgG1, V domains shown)
VH: B2 VH with N61A, G62Q, E63K, R65Q, V66G
VL: B2 VL
notes: as for B2
Kd [1]: 180 nM | cell binding (FOB) [2]: 80 FOB | Soluble luciferase activation at 10 µg/ml Fold over control [3]: 7.29 fold over control

B13: AL2p-h22 (antibody, human IgG1, V domains shown)
VH: B8 VH with M48I, A79V
VL: B2 VL with V88L, Y92F
notes: as for B2
Kd [1]: 325 nM | cell binding (FOB) [2]: 61 FOB | Soluble luciferase activation at 10 µg/ml Fold over control [3]: 5 fold over control

B15: AL2p-h42 (antibody, human IgG1, V domains shown)
VH: B8 VH with G44R, M70I, A72R, T76A
VL: B2 VL
notes: as for B2
Kd [1]: 141 nM | cell binding (FOB) [2]: 79 FOB | Soluble luciferase activation at 10 µg/ml Fold over control [3]: 9.29 fold over control

B16: AL2p-h33 (antibody, human IgG1, V domains shown)
VH: B8 VH with A16S, M48I, V68A, M70L, S77T, Y95F
VL: B2 VL with V88L, Y92F
notes: as for B2
Kd [1]: 225 nM | cell binding (FOB) [2]: 74 FOB | Soluble luciferase activation at 10 µg/ml Fold over control [3]: 6.21 fold over control

Further binders by falling Kd [1], results first:

Kd [1]: 1150 nM | cell binding (FOB) [2]: 69 FOB | Soluble luciferase activation at 10 µg/ml Fold over control [3]: 4.36 fold over control
B5: AL2p-h24 (antibody, human IgG1, V domains shown)
VH: B2 VH with K12V, V20I, R44G, G62Q, E63K, R65Q, V66G, A76T, T117A
VL: B2 VL with V88L, Y92F
notes: as for B2

Kd [1]: 334 nM | cell binding (FOB) [2]: 76 FOB | Soluble luciferase activation at 10 µg/ml Fold over control [3]: 5.38 fold over control
B12: AL2p-h23 (antibody, human IgG1, V domains shown)
VH: B8 VH with V18L, V20I, M48I, V68A, M70L, T117A
VL: B2 VL with V88L, Y92F
notes: as for B2

Kd [1]: 161 nM | cell binding (FOB) [2]: 93 FOB | Soluble luciferase activation at 10 µg/ml Fold over control [3]: 9.28 fold over control
B17: AL2p-h47 (antibody, human IgG1, V domains shown)
VH: B8 VH with A61N, Q62G, K63E, Q65R, G66V, A72R, A79V
VL: B2 VL
notes: as for B2

Kd [1]: 144 nM | cell binding (FOB) [2]: 81 FOB | Soluble luciferase activation at 10 µg/ml Fold over control [3]: 5.6 fold over control
B6: AL2p-h32 (antibody, human IgG1, V domains shown)
VH: B2 VH with A16S, L18V, R44G, A76T, S77T
VL: B2 VL with V88L, Y92F
notes: as for B2

Kd [1]: 137 nM | cell binding (FOB) [2]: 76 FOB | Soluble luciferase activation at 10 µg/ml Fold over control [3]: 6.28 fold over control
B1: AL2p-h21 (antibody, human IgG1, V domains shown)
VH: B8 VH with A72R, A79V
VL: B2 VL with V88L, Y92F
notes: as for B2

Kd [1]: 130 nM | cell binding (FOB) [2]: 69 FOB | Soluble luciferase activation at 10 µg/ml Fold over control [3]: 7.06 fold over control
B14: AL2p-h59 (antibody, human IgG1, V domains shown)
VH: B8 VH with G44R, M70I, A72R, T76A
VL: B2 VL with V2I, T7S, S12P, Q17E, Q105G, L109V
notes: as for B2

Kd [1]: 120 nM | cell binding (FOB) [2]: 78 FOB | Soluble luciferase activation at 10 µg/ml Fold over control [3]: 7.23 fold over control
B7: AL2p-h27 (antibody, human IgG1, V domains shown)
VH: B2 VH with L18V, R44G, A76T
VL: B2 VL with V88L, Y92F
notes: as for B2

Kd [1]: 95.3 nM | cell binding (FOB) [2]: 78 FOB | Soluble luciferase activation at 10 µg/ml Fold over control [3]: 7.25 fold over control
B18: AL2p-h26 (antibody, human IgG1, V domains shown)
VH: B8 VH with G44R, M48I, M70I, T76A
VL: B2 VL with V88L, Y92F
notes: as for B2

Kd [1]: 83 nM | cell binding (FOB) [2]: 86 FOB | Soluble luciferase activation at 10 µg/ml Fold over control [3]: 6.57 fold over control
B19: AL2p-h76 (antibody, human IgG1, V domains shown)
VH: B8 VH with G44R, M48I, V68A, M70I, T76A, Y95F
VL: DVVMTQSPDSLAVSLGERATINCRSSQSLVHSNGYTYLHWYQQKPGQSPKLLIYKVSNRFSGVPDRFSGSGSGTDFTLTISSLQAEDVAVYYCSQSTRVPYTFGGGTKVEIK
notes: as for B2

Kd [1]: 61.2 nM | cell binding (FOB) [2]: 126 FOB | Soluble luciferase activation at 10 µg/ml Fold over control [3]: 4.35 fold over control
B3: AL2p-h90 (antibody, human IgG1, V domains shown)
VH: B8 VH with G44R, M48I, M70I, T76A
VL: DVQMTQSPSSLSASVGDRVTITCRSSQSLVHSNGYTYLHWYQQKPGKSPKLLIYKVSNRFSGVPSRFSGSGSGTDFTLTISSLQPEDFATYYCSQSTRVPYTFGGGTKVEIK
notes: as for B2
